Experimental findings from the domain aggregation screens of Martell et al. (2025) are described below.

A short description of this data set: soluble fraction after stress (log2 fold change); higher = more stays soluble; pooled small domains, quantitative proteomics. The note with it: stress: pH 4. The essentials: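 How much of each domain stays soluble after acid stress, expressed as a fold change, is used to gauge aggregation propensity. Pooled custom libraries of small domains underwent pH 4 stress before high-throughput quantitative proteomics. A higher log2 value means more of the domain stayed soluble.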
For “HMPRNEIQRSVLNELVQWIKNNLAKKLTMQALSRFSGYSEWHLFRLFRHYFNMSPMAYIRQQRMQ”, the “soluble fraction (log2)” value was -0.359. With “HMPRPRIHSVVRGDTLYGISRQYGVAMSKLASLNGLKSPYRIMVGRSLRLPSAIEAERDRTAREVVQ” the figure was 0.208; with “HMPRVLSSYTLTLRHQPTAEAVALVRTLLSPAGSVEVKEDGRTLVVRDELAALSRIVGALRSFDH”, -0.139.

In the case of “HMPRVSIEKIKKVVELLKHNPDYTYSKIGNIVGIGRKTVSGINNGKLYTDLVEELGINEFPI”, the “soluble fraction (log2)” value turned out to be 0.0348. With “HMPRYQQIARQLKTAIEHGELKPGARLPSSRTWSQELGISRSTVESAYTELVAQGWLERRGQAGTFVSAQL” the figure was 0.0517; with “HMPRYSGMFAAWLHKALARMGKSMSDSARSAFTERVELDYSSANNELQKLSLLVGDRKVITEADVMRAIG”, -0.0455; with “HMPSALGDKIRAARKALKLSLEDLAEKVSSSKSYMWELENRDEPNPGADLLMRIAAALNVTTEHLLGP”, -0.0842. Take “HMPSDLQATLRAVQGMLQGVEGVDARLAGQRILLEGDSADARARERAAAIAGIFPGVVIDFVG”: the “soluble fraction (log2)” value is 0.062. With “HMPSEAVQNIIGNVKSKRRVATIGQARGLASNVIKEGKFDNVSNTAMVNRLIDLGIISNSIGYQ” the figure was 0.283; with “HMPSEQGANKARDIIFRHHMKVDVWVGSWENARNYAEQAIKQGVKVIISRGGTAALLRHSLDTAIIKVR”, 0.22. The result for “HMPSGLFEPIKKSELSIESIDLLKDQIRAFKQADIRITFGFLLDLITKGENPAYVNASKLFEQAWER” reads -0.241. The result for “HMPSPSTLAKVDPFLLVTNADSLLMARPDDSELRAAIITAHINLAKTNNSVDHYKEVLKIEPQNALANYN” reads 0.0418; that for “HMPSPTPEQVLKAFTDAAMQKNTVEELKQAFAKAWKMLEGTPEQHKAQDVYNIRRDELEGAA”, -0.0378; that for “HMPSSIEGIEKYLGSGMIRGIGAVYAKRLVKQFGKDVFDIIEETPERLREVEGIGPIRAARIISGWADQ”, -0.154. Turning to “HMPTITSPMVGTFYRAPSPGAAPFIEVGDTVKKGQVIGIIEAMKLLNEVEADKDGVVQAFAAENGEL”, the “soluble fraction (log2)” value was -0.681.

As for “HMPTLNIVDGHIAASDGVRILSIHNVTGRRYATSSKLPAGIYIVVLMPAKAETPLTVKVIVEA”, the “soluble fraction (log2)” value is -0.17. With “HMPTMTDIPIKIIRSRRRTLAIEVREGGEVIVRAPLYSRKAEIDAFVKAHENWIITKYNLMITKQN” the figure was 0.352; with “HMPTPRVPMSKQRQILQLLQDGHLSTREIAAALHISKTSVGDIAKAARLAGLDWEAASKLSDEELSARIYK”, 0.0991; with “HMPTSPKANFLKELPQEFTRKQAVTIGDKLNIKERTVDNYLAKLEQAGYLVKPKAGYYQKIKS”, 0.22. As to “HMPTTTFENLPDAKKKTIIAALLKEFSQSPLSKAQVAPIVKESQIARGAFYKYFVDLTDAYTYLYRQ”, the “soluble fraction (log2)” value is -0.217. With “HMPTVLKQGSTGQEVKELQQALSKLGYRVTVTGEFDTATHYGVVRFQRKHRLTIDGIVGPQTLSKIRAHQK” the figure was -0.0726; with “HMPVAPTYALTVKTDPPSANVRLLNSPTPYQPGVRLPSGNYDIEVTQSGYATRKESVRIADRDVALNIAL”, 0.0432.

For “HMPVASNRDVNLDIGERVFVQEWAPNRTARVQYRGSPWEARLAPGAPAAAGEHRVSAVEGNWLVLEPA”, the “soluble fraction (log2)” value was -0.19. With “HMPVEFVKISIKPGHPWENQFVRDIVSLPDLLMVLILRGEERIIPNGNTKILVGDKIVLSALSPG” the figure was -1.4; with “HMPVEHVWHIAENGQTSGPYSKARMGRMAQEGQLTRDTHVWTPGQDGWMRAGDVTELAQLFT”, -0.0732; with “HMPVFSLTPRELEILEWMSTPNTYRQIAAQLSVSEETVRSHAKNILEKMRQPNRAQAVLAAVKMGLIKL”, -0.772. As for “HMPVISGQDLRVLIRDTGRERDQGISFLDDGTMVVVEDARRLIGQEVTATVTRVHQTQTGRIVFAHLSN”, the “soluble fraction (log2)” value was -0.698. Regarding “HMPVPSPAEQTATQLANIERHTGITVDGWTRAIAEAGAAKHGEIVAWLKQQGLTHGNANALAHAVRARQSG”, the “soluble fraction (log2)” value stood at 0.173. The result for “HMPVQSNRDALLDIGQTLQVQAWDAQGSARVSYRGSDWTAEFRGPGAAAPGLHRIIAVQGNRLIVEPA” reads -0.164; that for “HMPVRIYEISKKLGLENKEVLATAKSLGIAAAKVPSSSLDKITAEYLEEEILKSHPEVAARLK”, not below 0.43; that for “HMPVYEEEVPAALDGQRLDRVVAMVTGLSRSEVGALLAAGAVTVDGTTPAKGSVRLAAGSIVSVTVS”, -0.366. With “HMQAATGVVTASVLNIRQGPGTNYTKVGSLLKGAQVEIVGQNGAWSKIRLKSGITGWVNSSYLKTST” the figure was -0.085; with “HMQAGPEDIIRAKLKTAMPEAQIISIRPTPAGLYQVNAKGYESVFVTADGRYLFQGDLLEIQGDRIVNL”, -0.714; with “HMQAKNGTVTGSVVNVRGGAGTQYAVKGKASRGTKVTILGQQSSWLNVRLDNGVTGWIHADYVQISE”, -1.43. For the sequence “HMQAPHLALSPREFQVLQGLLAGDALDIIAERLHLSAKTVSNHQTLIRQKLGVGNAVELLRYAQLHRL”, the “soluble fraction (log2)” value is -0.661. In the case of “HMQAPIFMNETDGKWYFREKYLNDNHEIAYRVHPEGYDQMEDALRNSVNALNEFAAEMKELRKQV”, the “soluble fraction (log2)” value was -0.64. Regarding “HMQAPVVNHDLIKSFERQWREIKATAKGKVRSVNLSDARSILQSFLNTLQKGPGTDSLISSVQNELSLIA”, the “soluble fraction (log2)” value amounted to 0.00595. For the sequence “HMQARDQNVDEGKALLEKEFSRLALENLDRDKLANAVNYPTRDDMYAAIGAGDLRVGQVLHQAQQLF”, the “soluble fraction (log2)” value was -0.323. In the case of “HMQASTGNVNTETLNLRKEASTSADILKLLSQGDEVEIVSESNGWYKVKYKDTEGFVSKEYITVN”, the “soluble fraction (log2)” value is -0.159. With “HMQATETFSLIVPMSSAGNRLDVVLSELLPNFSRKKIQDAIKNGDATLNGKAPKIRDKVYGGENITITLIL” the figure was 0.0369; with “HMQAVDPLELRAGDFVVHEQHGIGRYVEMVQRTIGGITREYLVIEYAPAKRGQPNDRVFVPTDTLEQVS”, -0.579; with “HMQAVKQIKVERGMTLEKIAQSEFGDSTRWGEIVEVNNLRAPYISDDPTETRDGVLKPGSNLLIPIP”, -0.825. The result for “HMQDEAQLSMSNKYIFEGNSIVKDNFIEAEKKYRLGVSAKPNNAVGSYNLANAYYNSKLYDEAMLRLL” reads -0.179; that for “HMQDEREEIAVEDVVGMPLWQARKVIADQGFRVLDDGAGDIVIAQMPSGGGKLIEGGQVMLYTYTD”, -0.201. The result for “HMQDFEEILKNAKIEDFKHTQTGEDLKVLKIEDKIEDFKGFNAYLVKNQIAYYSKFARGFVVKNIEKLQGV” reads 0.155; that for “HMQDFEQNLFDGKSIYDRMLSKFSLHNVDVKQLVAHFKRKDTEQFFADIGRGLITSAQMLGFLQT”, -0.219; that for “HMQDLVAVPALTGLTENDAINKAKANNLIAVVSEYKTENSVEPGKVLEQDPESSTEVKKGTIIKLVVS”, 0.16. Regarding “HMQDQVTLIVQVNGKLRGQISISTDATKELIEQTALANENVQKFVDGQSIKKIIIVPGRLVNIV”, the “soluble fraction (log2)” value stood at 0.22. Regarding “HMQDRDKNVPAGKELLDNEIARLNMSLKQVEQFALPRYNLKTLEDLYSGIGSGDIRLNHLINFLQSKLI”, the “soluble fraction (log2)” value is -0.892. As for “HMQDREIHIHAGREVLEKELSRLSLHLKNTNLQEYAARFNVKTAEDILAGIGAGDIRPAHVVNLIADKL”, the “soluble fraction (log2)” value is -0.222. With “HMQDSSGENNPQSKLTQQQVDLLMKDLKETNVEFDKLAEKYNVSIKTIRNVNTGIAWRKNDITYPIREP” the figure was -0.255; with “HMQDTQAEEGETLLDALRRIHPESSTGTLRRMLTQGRVQLDGDSVHAAKTVLSAGQRVEVVAR”, 0.088; with “HMQDTTLTSQILRVPSSVNINDLANVLKSLAGKNTVVAPYKAANTIIITGYAPNVRRVLSLANELIPRLDV”, -0.0875. With “HMQEAGLITQRIREMREKENWTQEYMAEQLGMSENGYAKIERGESNLSLKRLQQIADIFEVESAELLK”, the “soluble fraction (log2)” value was -0.566. As for “HMQEDKSKYLFQRGTAITVLRPAGIVRIGKERVDAVSNGSYIDRGVAVRVIEVEGTRVVVEPVPE”, the “soluble fraction (log2)” value is -0.151. As to “HMQEEMIRGDIKLNTVMQTVHLAVGTETERNWQPVETTAKEFELLKLLMENPGVTLKKEYLFHMLI”, the “soluble fraction (log2)” value was -0.654. In the case of “HMQEESISWKEFLELDIIGDKKKRLKVYDLFHLGYGNAKTLFKRLNMVGISREMIEKELENEGY”, the “soluble fraction (log2)” value is -0.0561. On to “HMQEKIREVANRIRELRESLEVSPEEMADHLKVTIGTYIEYERGEADIPASVLFGIAHRLNVDMAVLL”, for which the “soluble fraction (log2)” value is -1.36. The result for “HMQEKLELIIPVSSIGKRADVAIQDLLSSYSRAKIQEWIKSGFILLESKKISPKDIFMGGERVFIDIQQDE” reads -1.38; that for “HMQELVPGKVFEGTVTEMKNGQVTLGLSDGKTISARMEQGVSLAKGQPMLFEVKSNTGEQIAIRPVVL”, 0.105. Take “HMQENKVLEGKVLEKKKKKVFVDLSPFGVGVIRGVNYLEAKNELKDIEEGDNIKVRVLEIDNENGFIELAL”: the “soluble fraction (log2)” value was -1.13. Take “HMQERQREGFVQQLRGKYSGQVVMRLFPELQGKALGEFMRKFEAQWEDHEAVLAAMEAHEIESRLKVFK”: the “soluble fraction (log2)” value is -1.2. With “HMQETALANFETNEGVQKVKQYVQENVPSLRGSNIVGVWTSYTPEGLTNYRTRFLTQDGQFVEVNLAYQ” the figure was -0.885. With “HMQETIDVAALRVGMFVHLDLGWLAHPFPLSSFRISSEDQISTIRALGLKRVRWSSQHSELG” the figure was -1.27; with “HMQETKDEGAQVLLNKINALVAAVQGQIITPEEAAIKLATDGDLDLDVDARVAAIEEFNKKLSEAQNN”, -0.682. With “HMQEVILEKIQLTYLSADKLSKMAEQFSIPVKMYWVDENPMMLMVMGNESDIATFKKVLTQIDIPENKS” the figure was -1.04; with “HMQFHQDNYALEFIRDLQPVDGAIILSRFKQFDLVELEKAKKIKFSDEHMAWTLYDYDIKKIN”, -1.82; with “HMQFLKPQDVLFLLKLVVLKGPASIFPAVPESLGLSKAEVHNSAKRVRGARLLPHDSWNPLRKNLLEFL”, 0.0341.

Regarding “HMQFQVHEIKGKEYYIHVVEKGNTLYAISRMYSVPIETLKEENPRLNTTELTIGDRLLIPLDEVKRKNIE”, the “soluble fraction (log2)” value was -0.316.
